Laboratory results reported in paper PMC10413684, “A bacterial tungsten-containing aldehyde oxidoreductase forms an enzymatic decorated protein nanowire” (Science Advances, 2023).
Several values for one entry are separate records, joined by “and”; a condition that tells them apart may be missing. Equal values may be shown once.

B1: AorB, catalytic tungsten-cofactor-containing subunit of the aldehyde oxidoreductase from Aromatoleum aromaticum (AORAa) (protein)
chain: MGWNRKVLRVNLAEGTCTPEPLNMQWADEYLGSRGLATKYLVSETDPKVDPLSPDNKMIMATGPLTGTMASTGGRYTVVTKGPLTGAIACSNSGGFFGAEMKFAGWDMVIFEGRSPTPVYLFIENERAELRDASYLWGRSCWETEESIRAQHQDPLIRVSSIGRAGENQVMFACIVNDLHRAAGRSGVGAVMGSKNLKAVAIRGTKGVSGIRDFPGFVRATSEAKKVLAGNPVTSEGLPKFGTQVLMNVINEMGALPTRNHRDVQFEDASKISAEAMHEKRPSDGKPQLVTNAACFGCTIACGRISAIDKTHFTVKNNPKYWGASGGLEYEAAWALGAANGVGDLEALQYANLLCNEQGMDPISFGATVGAAMELYETGVLTKERIGLDAPFGSADALAKLAEMTATGEGFGKEIGLGSKRLCEKYGHPELSMSVKGQEFPAYDSRGIQGMGLAYATSNRGACHLRGYTVASEVLGVPVKTDPHVIEGKAELVKAFQDATAVFDSAGICVFTSFAWTLADVQPQIAAACDGDWSMDKLATVGERIWNMERQFNNAAGLGAQDDNLPPRLTSEPAKSGPAKGMVNRLAEMLPEYYGVRGWTPEGTPTPETLSRLGLS
B2: AorA, polyferredoxin-like small subunit of the aldehyde oxidoreductase from Aromatoleum aromaticum (AORAa) (natural protein)
chain: MWKSLHIDPAKCTGCLQCEMACSYEHTGVINPSKSRIKVFSFEHEGRKVPYTCTQCTEAWCLHSCPVDAIRLDLTTGAKMVFEDTCVGCKVCTIACPFGTINYNQDTGKVQKCDLCEGDPACAKACPTAAITYIDADWTGLARMQAWAAKANTPASAA
notes: Two to four copies per Aor(AB)nC complex; Carries four Fe4S4 clusters; also called small subunit AorA; electron transfer subunit; source: Aromatoleum evansii, heterologous expression of the AOR plasmid
B3: AorC, FAD-containing NAD-binding subunit of the aldehyde oxidoreductase from Aromatoleum aromaticum (AORAa) (natural protein)
chain: MKHVILGNGPAGVIAAETLRRAAPTDDILLFGSEDAPPYSRMAIPYLLEGNIDESGTWLRKSPGHFDRLRIHEMRGRAVSLDSERRRILFDDGHFESWDRLLIATGSHPVRPPIPGIDLPEVQTCWTLEDARAIARFATPGARVLQLGAGFIGCIIMEALAARGVELTVVEMGDRMVPRMMTPTAGGMIRKWVEDQGVRVVTNAGVSRIDCRASNDAPLDVTLSTGEVVVADLVIVAAGVAPNIAFLEATPVHVAKGVLVDDRLQTSVPGIFAAGDVAEAPDLFTGAHLVAAIQPNAADQARVAALNMAGHEARLKGVLAINVLDTLGLISSSFGQWWGEERERGGAGVEHVDEAAYRYLSLQFKDDVLIGATSIGLTEHVGALRGLIHGRVRLGEWKERLLHSPLQFVDAYIARSQQPMALVR
notes: AorC of Aromatoleum aromaticum, Rossmann fold with an extended C-terminal domain of three α helices; A single copy per Aor(AB)nC complex; also called FAD-containing subunit; source: Aromatoleum evansii, heterologous expression of the AOR plasmid; Superdex 200 gel filtration for the wild-type complex, not for Δhelix-AOR

What was measured:
[1] = biological target: T1, AORAa (Aor(AB)nC complex; FAD-containing subunit AorC) (Aromatoleum aromaticum, UniProt Q5P142); assay: cryo-EM structure, […] A; assay type: binding; conditions: bound in AorC; Arg41 and Glu294 (Gln294 in figure legend)
T1 construct: same complex as P1, site in AorC; N-terminal twin-Strep-tag on AorA; expressed in Aromatoleum evansii; modelled Aor(AB)2C; with Aldehyde oxidoreductase, polyferredoxin-like iron-sulfur subunit AorA; Aldehyde oxidoreductase, tungsten-containing catalytic subunit AorB (aldehyde:ferredoxin oxidoreductase)
T1 sequence (Q5P142 1-424): B3 chain
T1 sequence (Q5P144 1-158 partner): B2 chain
T1 sequence (Q5P143 1-616 partner): B1 chain

[2] = biological target: T2, AORAa (Aor(AB)nC complex; FAD-containing subunit AorC) (Aromatoleum aromaticum, UniProt Q5P142); assay: spectrophotometric specific activity; assay type: biochemical; conditions: hydrogen as electron donor; deletion-helix AOR
T2 construct: same complex as P1, site in AorC; N-terminal twin-Strep-tag on AorA; expressed in Aromatoleum evansii; modelled Aor(AB)2C; with Aldehyde oxidoreductase, polyferredoxin-like iron-sulfur subunit AorA; Aldehyde oxidoreductase, tungsten-containing catalytic subunit AorB (aldehyde:ferredoxin oxidoreductase)
T2 sequence (Q5P144 entry or part of it DEL138-156, one chain of several, further chain): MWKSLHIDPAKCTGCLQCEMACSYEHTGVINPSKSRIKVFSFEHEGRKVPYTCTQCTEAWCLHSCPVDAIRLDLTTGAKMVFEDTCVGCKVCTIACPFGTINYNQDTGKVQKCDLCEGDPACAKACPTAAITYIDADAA

[3] = biological target: T3, AorA of the variant Δhelix-AOR, lacking the AorA residues from 138 to the C terminus (Aromatoleum aromaticum (strain DSM …, UniProt Q5P144)); assay: mass photometry of co-purified complex
T3 chain: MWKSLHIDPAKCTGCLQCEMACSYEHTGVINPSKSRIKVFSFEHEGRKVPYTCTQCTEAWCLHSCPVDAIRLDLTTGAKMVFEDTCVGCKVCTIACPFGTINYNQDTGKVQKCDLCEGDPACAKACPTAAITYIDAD

[4] = biological target: the molecule itself; assay: mass photometry; OneMP mass photometer, 10 mM tris pH 8.0, 100 mM KCl, 0.1 mM EDTA, room temperature, sample diluted 10-fold just before measurement; 50 nM in Fig. 2D, E
[5] = biological target: T4, AorB, catalytic tungsten-cofactor-containing subunit of the aldehyde oxidoreductase from Aromatoleum … (Aromatoleum aromaticum, UniProt Q5P143 1-616); assay: cryo-EM structure; purified AORAa complex, 0.7 mg/ml, 50 mM Hepes pH 7.5, glycerol below 2%; native and BS3 cross-linked samples prepared; 3.22 Å map of an Aor(AB)3C complex, model of Aor(AB)2C; conditions: both partners purified
T4 construct: AorB of Aromatoleum aromaticum; benzoate seen in the active site; also called catalytic subunit; source: Aromatoleum evansii, heterologous expression of the AOR plasmid; Superdex 200 gel filtration for the wild-type complex, not for Δhelix-AOR
T4 sequence: B1 chain

[6] = biological target: B3; assay: as above; conditions: both partners purified
[7] = biological target: T3, AorA of the variant Δhelix-AOR, lacking …; assay: mass photometry of co-purified complex; seen only within the AorABC complex, with AorB present

Cc1cc2nc3c(=O)[nH]c(=O)nc-3n(C[C@H](O)[C@H](O)[C@H](O)COP(=O)(O)OP(=O)(O)OC[C@H]3O[C@@H](n4cnc5c(N)ncnc54)[C@H](O)[C@@H]3O)c2cc1C [FAD]
cryo-EM structure, 3.22 A [1]: The FAD cofactor was well resolved in the electron density

NC(=O)c1ccc[n+]([C@@H]2O[C@H](COP(=O)(O)OP(=O)(O)OC[C@H]3O[C@@H](n4cnc5c(N)ncnc54)[C@H](O)[C@@H]3O)[C@@H](O)[C@H]2O)c1 [NAD^+]
specific activity [2]: NAD^+ reduction with hydrogen as an electron donor

B1
binding result [3]: binds

B2
stoichiometry N [4]: 2 and 3 and 4
binding result [5]: binds
binding result [6]: binds

B3
binding result [7]: binds
binding result [5]: binds
